From patent US7951530B2, “Cyclic maltosylmaltose, cyclic maltosymaltose-forming enzyme, their preparation and uses” (Kabushiki Kaisha Hayashibara Seibutsu Kagaku Kenkyujo, priority 2003, dated 2011)

T1: Salivary α-amylase (Homo sapiens, UniProt P0DUB6)
T1 sequence (P0DUB6 16-511): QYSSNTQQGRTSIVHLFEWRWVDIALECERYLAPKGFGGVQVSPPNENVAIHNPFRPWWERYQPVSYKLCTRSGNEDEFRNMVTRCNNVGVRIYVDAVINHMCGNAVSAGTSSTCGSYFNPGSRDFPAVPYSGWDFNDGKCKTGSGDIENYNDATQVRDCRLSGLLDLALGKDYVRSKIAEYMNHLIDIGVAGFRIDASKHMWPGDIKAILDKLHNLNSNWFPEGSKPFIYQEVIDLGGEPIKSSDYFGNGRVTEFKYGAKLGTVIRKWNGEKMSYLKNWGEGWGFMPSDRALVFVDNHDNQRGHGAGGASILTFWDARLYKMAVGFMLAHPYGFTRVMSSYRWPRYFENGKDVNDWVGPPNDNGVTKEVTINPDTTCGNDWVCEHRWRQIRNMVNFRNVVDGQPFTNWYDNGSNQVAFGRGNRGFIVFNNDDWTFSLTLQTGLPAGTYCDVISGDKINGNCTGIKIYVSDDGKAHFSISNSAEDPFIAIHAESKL

B1: CMM-forming enzyme: enzyme from Arthrobacter globiformis M6 acting on α-1,4 glucans of polymerization degree 3 or higher to form CMM; SEQ ID NO:2 (protein, listed as Arthrobacter globiformis)
chain: DPTTSPGPLAEGDVIYQVLVDRFEDGDPTNNDQGDGEYDPSDLGFYHGGDWAGLTDRLDYIADLGVTAIWLSPVSEQQPLSRDGLEASYHGYFTRDFATPNEHFGDRAELQELIDTAHDLGLKMILDVVPNHTADYLAGTSTTYSPSTYKPASPLDDASYFHHAGDCLFNGLETQTQIENCDLGGLDDLDQSNPVVSSHLMSTYKDWVDMGFDGIRVDAARSVPKPWLADFEAEMGVPTFGEVFVGDVDYVSEYQDYEWGVLDFPYFFTVREAFSADTDMNKLGDLFDQDSKYANPNRLETFLDNHDRARFLTWADDNYQRLRSGLTFLLTSRGVPVIYYGTEQADDGNGNPYEVPIANKDNRKDMESFDQNSNLYKHIQRLTAIKAAYPALQVGTQREMWSDTSVYGFSRRVDSTGAEAMTFSSNSWTTQTRTVPLRAESSITVGTTLTNLMNTGDTVTVTAGGVTGKQITVSLGEHESKVYAPGTPVSAYSPEARNTTKIRVHYNVGLGHSIAIRGDEYPFTWTSGRGARNVASDVWEFEVERIPDGETFQFKPLIDDVTWSTGGNFTGTGGDVIDIYPTF

Assays:
Pancreas α-amylase = test: Digestibility by pancreas α-amylase
Text: (§1) 43, 23-29 (1990), the digestibility of CMM by salivary α-amylase, artificial gastric juice, pancreas amylase, and small intestinal enzymes were investigated using the powdery hydrous crystalline CMM, obtained by the method in Experiment 14.

[1] = Digestibility by artificial gastric juice
Text: as §1

Salivary α-amylase = biological target: T1, Salivary α-amylase; test: Digestibility by salivary α-amylase
Text: as §1

Small intestinal enzymes = test: Digestibility by small intestinal enzymes
Text: as §1

CMM-forming enzyme = test: Action on various saccharides (substrate specificity, TLC); type: biochemical, Arthrobacter globiformis M6; design: key: “−” means “Not changed”; “+” means “Spot of substrate is slightly decreased and other products are detected”; “++” means “Spot of substrate is markedly decreased and other products are detected”; “+++” means “Spot of substrate is virtually disappeared and other products are detected”; conditions: substrate 2% (w/v), one unit/g-substrate enzyme, 40° C., pH 6.0, 24 hours, TLC before and after reaction
Method: Substrate specificity of CMM-forming enzyme of the present invention was investigated using various saccharides as substrates. Substrate solutions were prepared by dissolving maltose, maltotriose, maltotetraose, maltopentaose, maltohexaose, maltoheptaose, neotrehalose, trehalose, kojibiose, nigerose, […] isomaltose, isomaltotriose, panose, isopanose, maltitol, maltotriitol, α-, β- or γ-cyclodextrin, amylose, soluble starch, glycogen, pullulan or dextran into water. Each substrate solution was admixed with acetate buffer (pH 6.0) and CaCl2 to give final concentrations of 20 mM and 1 mM, respectively. […] Substrate concentration was set to 2% (w/v) and followed by the enzyme reaction at 40° C. and pH 6.0 for 24 hours. Action and the specificity of the enzyme on these saccharides were confirmed by analyzing the reaction mixture before and after the reaction by TLC described in Experiment 1.

[2] = Isoelectric point of CMM-forming enzyme; type: physicochemical, Arthrobacter globiformis M6
Method: The purified enzyme preparation of CMM-forming enzyme, obtained by the method in Experiment 4, was subjected to polyacrylamide gel isoelectrofocusing containing 2% (w/v) “AMPHOLINE”, a carrier ampholyte commercialized by Amersham Biosciences, Tokyo, Japan and isoelectric point of CMM-forming enzyme was measured compare with isoelectric point markers, commercialized by Amersham Biosciences, Tokyo, Japan.

[3] = Optimum temperature and optimum pH of the enzyme reaction; type: biochemical, Arthrobacter globiformis M6
Method: The enzyme activity of CMM-forming enzyme of the present invention can be assayed as follows: A substrate solution is prepared by dissolving soluble starch in 50 mM acetate buffer (pH 6.0) containing 2 mM CaCl2 to give a concentration of 2% (w/v). A half milliliter of an enzyme solution is added to 0.5 ml of the substrate solution, and the mixture solution is incubated at 40° C. for 30 min. After stopping the reaction by heating at about 100° C. for 10 min, the reaction mixture is admixed with 4,000 units/g-solid of α-glucosidase and 250 units/g-solid of glucoamylase to hydrolyze remaining soluble starch and by-products, oligosaccharides, and followed by the enzyme treatment at 50° C. for 1 hour. The amount of CMM contained in the treated mixture is determined by HPLC described later in Experiment 1. One unit activity of CMM-forming enzyme is defined as the amount of enzyme which forms one μmole of CMM per minute under the above conditions.
The results are in FIG. 5 (Optimum temperature) and in FIG. 6 (Optimum pH), respectively.

[4] = recombinant enzyme purified from transformant BMB1

| Molecule | Degradation rate (%) (Pancreas α-amylase) | Degradation rate (%) [1] | Degradation rate (%) (Salivary α-amylase) | Degradation rate (%) (Small intestinal enzymes) | Action (CMM-forming enzyme) | isoelectric point (pI) ([2]; purified enzyme from Arthrobacter globiformis M6, polyacrylamide gel isoelectrofocusing) | isoelectric point [2, 4] | optimum pH ([3]; purified enzyme from M6, reacted at 40° C. for 30 min) | optimum temperature ([3]; purified enzyme from M6, reacted at pH 6.0 for 30 min) | optimum pH [3, 4] | optimum temperature of CMM-forming enzyme activity [3, 4] |
| --- | --- | --- | --- | --- | --- | --- | --- | --- | --- | --- | --- |
| OC[C@@H](O)[C@@H](O[C@H]1O[C@H](CO)[C@@H](O)[C@H](O)[C@H]1O)[C@H](O)[C@@H](O)CO [Maltitol, maltitol] | 0% | 0% | 0% | 4% | − |  |  |  |  |  |  |
| B1 |  |  |  |  |  | 3.6±0.5 | about 3.6±0.5 | 5.5 to 6.5 | 50 to 55 °C | 5.5 to 6.5 | 50 to 55 °C |
